The target in experiment [1] is T1, Myo2-GTD (globular tail domain of Myo2) (Saccharomyces cerevisiae (strain S288c), UniProt P19524 1152-1574).
T1 chain: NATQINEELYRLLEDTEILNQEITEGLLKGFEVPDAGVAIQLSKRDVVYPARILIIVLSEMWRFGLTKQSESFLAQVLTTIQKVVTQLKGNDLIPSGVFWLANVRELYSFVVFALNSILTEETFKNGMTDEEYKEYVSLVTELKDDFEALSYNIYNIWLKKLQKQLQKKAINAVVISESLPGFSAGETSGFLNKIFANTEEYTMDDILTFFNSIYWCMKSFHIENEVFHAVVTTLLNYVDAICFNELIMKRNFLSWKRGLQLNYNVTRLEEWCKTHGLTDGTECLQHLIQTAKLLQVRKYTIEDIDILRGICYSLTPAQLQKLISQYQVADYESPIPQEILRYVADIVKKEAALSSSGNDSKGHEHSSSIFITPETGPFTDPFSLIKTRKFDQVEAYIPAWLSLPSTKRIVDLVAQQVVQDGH
In words: ITC. In general terms: In ITC the heat of successive injections is recorded.

The target of experiment [2] is T2, Myo2-GTD Y1303A (Saccharomyces cerevisiae).
T2 chain: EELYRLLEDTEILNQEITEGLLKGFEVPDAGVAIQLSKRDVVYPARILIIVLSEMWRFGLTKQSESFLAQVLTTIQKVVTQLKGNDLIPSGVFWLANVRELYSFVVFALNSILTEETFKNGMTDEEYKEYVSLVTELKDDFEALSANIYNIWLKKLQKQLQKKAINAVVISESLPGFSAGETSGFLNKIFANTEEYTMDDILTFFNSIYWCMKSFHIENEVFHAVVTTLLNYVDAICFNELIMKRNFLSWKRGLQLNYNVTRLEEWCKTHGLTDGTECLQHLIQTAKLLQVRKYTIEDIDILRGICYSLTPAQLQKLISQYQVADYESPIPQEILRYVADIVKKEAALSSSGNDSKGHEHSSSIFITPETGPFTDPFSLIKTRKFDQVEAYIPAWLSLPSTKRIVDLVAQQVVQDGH
In words: ITC.

The target of experiment [3] is T3, Myo2-GTD D1297N (Saccharomyces cerevisiae).
T3 chain: T2 chain with D140N, A146Y
In words: ITC.

The target in experiment [4] is T4, Myo2-GTD (globular tail domain of Myo2) (Saccharomyces cerevisiae (strain S288c), UniProt P19524 1152-1574).
T4 construct: Myo2 (class V myosin), S. cerevisiae, C-terminal globular tail domain (GTD); Named Trx-Myo2-GTD in the light scattering experiment; also called Trx-Myo2-GTD; source: E. coli BL21(DE3), purified (Ni2+-NTA, size exclusion chromatography); not shown: Trx, N-terminal, kept
T4 sequence (looked up): T1 chain
Kind of experiment: ITC; 500 μM Myo2-GTD in the syringe titrated into 50 μM Kar9-MIS or Pea2-MIS in the cell, 25 °C; one-site binding model. The conditions noted are these: both partners purified.

The target in experiment [5] is T5, Myo2-GTD L1331S (Saccharomyces cerevisiae (strain S288c)).
T5 chain: T2 chain with A146Y, L174S
Kind of experiment: ITC.

Experiment [6] has as its target T6, Myo2-GTD W1407A (Saccharomyces cerevisiae (strain S288c)).
T6 chain: T2 chain with A146Y, W250A
Kind of experiment: ITC.

Experiment [7] concerns the target T4, Myo2-GTD (globular tail domain of Myo2). In words: ITC; 200 μM Vac17-MIS in the syringe titrated into 20 μM Myo2-GTD in the cell, 25 °C; one-site binding model. The note with it: both partners purified.

The source of these data is publication PMC9330073, “Cargo Recognition Mechanisms of Yeast Myo2 Revealed by AlphaFold2-Powered Protein Complex Prediction” (Biomolecules, 2022).

Where a chain is given by its changes, count along the chain named.

B1: GST-Pea2-CC1 (GST-tagged Pea2-CC1; dimer) (domain or fragment)
chain: AIQEEDSSKKLEELETAFSDLQLAHNFLTKQFENDRAEYVQDIEKLTRTNRELQDKLLNNHSNLSKTEKKLHELEQENKELEKANNKLNSSRH
modifications: N-terminal GST (pGEX-4T-1) left out; GST drives the dimerization
As usually defined, the Kd is the equilibrium constant for the complex coming apart. With B1, the figures for the Kd in experiment [1], in experiment [2] and in experiment [3] were 11 µM, 11 µM and 10 µM, respectively.

B2: Pea2-CC1 (Trx-tagged; monomer) (domain or fragment, Saccharomyces cerevisiae (strain S288c), UniProt P40091 235-327, looked up)
chain: B1 chain
notes: Pea2 (polarisome subunit), S. cerevisiae, conserved coiled coil CC1 containing residues 235-327; Named Trx-tagged in the light scattering; also called Trx-tagged Pea2-CC1; Pea2-CC1 monomer; source: E. coli BL21(DE3), purified (Ni2+-NTA, size exclusion chromatography); not shown: Trx, N-terminal, kept
In turn, B2 returned a dissociation constant Kd in experiment [4] of about 50 µM.

B3: Vac17-MIS (Myo2-interacting sequence of Vac17) (domain or fragment, Saccharomyces cerevisiae (strain S288c), UniProt P25591 112-157, looked up)
chain: PNEAPNDSPQSQSTRSSLGSFQPRPLKIIERQRLCMVTPSKPPKKS
notes: Vac17 (vacuole-related protein 17), S. cerevisiae, region containing residues 112-157 (MIS); Named Trx-tagged in the light scattering; also called Trx-Vas17-MIS; Vac17-MIS wild-type; source: E. coli BL21(DE3), purified (Ni2+-NTA, size exclusion chromatography); not shown: Trx, N-terminal, kept
As to B3, the dissociation constant Kd in experiment [5] was 0.41 µM; in experiment [6], 0.45 µM; in experiment [7], about 0.3 µM.
